This note sets out measurements from PMC1277818, “Substrate specificity analysis of protein kinase complex Dbf2-Mob1 by peptide library and proteome array screening” (BMC Biochemistry, 2005).

The experiment addresses T1, FHHDbf2-H6Mob1TM9 (Saccharomyces cerevisiae, UniProt P22204+P40484).
T1 construct: made in house; host or cells: Hi5 insect cells (baculovirus)
T1 sequence (P22204 1-572): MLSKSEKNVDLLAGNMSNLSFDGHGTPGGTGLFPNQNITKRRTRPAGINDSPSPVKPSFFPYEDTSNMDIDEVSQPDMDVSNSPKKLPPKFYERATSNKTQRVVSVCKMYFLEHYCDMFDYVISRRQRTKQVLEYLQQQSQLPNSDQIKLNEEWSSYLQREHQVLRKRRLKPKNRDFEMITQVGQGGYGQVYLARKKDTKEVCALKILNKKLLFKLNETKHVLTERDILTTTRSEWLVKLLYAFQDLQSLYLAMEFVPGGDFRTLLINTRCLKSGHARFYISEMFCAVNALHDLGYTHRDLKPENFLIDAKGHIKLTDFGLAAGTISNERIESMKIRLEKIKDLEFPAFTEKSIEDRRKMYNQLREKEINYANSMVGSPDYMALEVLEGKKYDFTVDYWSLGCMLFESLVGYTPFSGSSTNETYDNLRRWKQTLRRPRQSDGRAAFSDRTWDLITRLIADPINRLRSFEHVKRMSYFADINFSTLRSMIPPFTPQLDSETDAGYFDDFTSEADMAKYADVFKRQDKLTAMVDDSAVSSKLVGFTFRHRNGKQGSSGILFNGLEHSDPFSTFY
T1 sequence (P40484 1-314 partner): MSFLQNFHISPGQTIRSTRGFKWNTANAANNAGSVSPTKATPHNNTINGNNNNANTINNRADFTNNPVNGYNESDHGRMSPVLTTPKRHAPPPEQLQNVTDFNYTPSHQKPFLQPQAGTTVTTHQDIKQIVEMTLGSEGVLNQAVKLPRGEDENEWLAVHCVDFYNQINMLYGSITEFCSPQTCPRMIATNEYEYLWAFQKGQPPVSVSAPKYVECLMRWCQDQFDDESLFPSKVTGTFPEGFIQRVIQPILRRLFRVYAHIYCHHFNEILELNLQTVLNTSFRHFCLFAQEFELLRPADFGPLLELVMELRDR
As to the kind of experiment: Yeast proteome chip assay. The experiment is classed as biochemical. Particulars: Table 4, the 25 proteins with highest signal relative to protein amount; [γ-33P]ATP, chips in duplicate. The method, boiled down: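 GST-tagged yeast proteins (~4,400 strains) spotted on proteome microarrays, probed in duplicate with FHHDbf2-H6Mob1TM9 in DKB plus [γ-33P]ATP; kinase-dead Dbf2(N305A) and kinase-free buffer served as controls. Positives: 3 of 4 spots ≥2 SD above background, fourth ≥1.5 SD.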

B1: YAL051W: GST fusion yeast protein on proteome chip (protein, UniProt P39720 1-1047, looked up)
Oleate-activated …: MVENSTQKAPHAGNDDNSSTKPYSEAFFLGFNNPTPGLEAEHSSTSPAPENSETHNRKRNRILFVCQACRKSKTKCDREKPECGRCVKHGLKCVYDVSKQPAPRIPSKDAIISRLEKDMFYWKDKAMKLLTEREVNESGKRSASPINTNNASGDSPDTKKQHKMEPIYEQSGNGDINNGTRNDIEINLYRSHPTMIMSKVMKREVKPLSENYIIIQDCFLKILVTSVFLDTSKNTMIPALTANANITRAQPSVANNLLKLKEMLIRQCQTEDEKNRVNEFTDRILQNTNSNRNLKIGMLLSMLYNSVGYQYLEDHCPQGGEYSDLLRNLINECEAILPSYEIIERYKNHFYEYVYPSLPFIELEIFEESLSQTIFPDPNNPSKVQIRMGSTHLRAKVENLSLLLVILKLSYMSIRFLDHSTADSSFYLSKEIIDKYPIPNDFILLSQRCLASENWCACANENIISCLLYIWSFFAFSPEEGDFFLEHPTDVISSLIMMLSTSIGLHRDPSDFPQLISPSTSDKRTLNHRRILWLSIVTVCSFEASLKGRHSVSPISLMALFLNIKDPDSLTVYMNRVRGDLSDINNHKLLRIHKFTFKRAQLALLLSDLDNLTMTYYGSFHLHSIEFIREKIEIFVEENFPIVPLKSVAQDKSDLDDMNVISEMNILSSENSSSFHNRIMNKLLMLRTSMAVFLHFETLITKDKSIFPFYKKYFMVSCMDALSLINYFNKFFNGEYRHAISSLTSFNVTKFIQLALSSTIFSLLGIILRIGLAIHMLSSEVQKLSGTTDPRIKELNTKVEKFSTLQRDLESALEGIYCSASEHLRFTYFPVFKMLALFDVIVQRMRKGELWHGIFTMIQMEQMHSRIIKTLSITLGVKLDKKDRLLEELMACNHVANFSVEDIDELNRNIKKEIQISSGLKPPVNTIDLTNGEPFGNAVPTFTKTWSSSLDNLEKLSSAAAVGQSLDYNSGLRQGPLAGGGSKEQTPIAGMNNLNNSINATPIVDNSSGSQLPNGFDRGQANNTPFPGYFGGLDLFDYDFLFGNDFA
modifications: GST tag
notes: GST fusion yeast protein on proteome chip
Take B1: the “Slide Signal (after normalization)” value was determined as 81.8589.
